Results: patent US20260265696A1, “HUMAN IPSC DERIVED AMELOBLASTS AND USES THEREOF” (UNIVERSITY OF WASHINGTON, priority 2021, published 2026)

Test system: hiPSCs (WTC-11) differentiating to ameloblasts (iAM)
Experiment: AMBN expression (QRT-PCR) in hiPSC-derived ameloblast (iAM) differentiation, day 10 to day 16, factors removed or added
Type: cell-based, human
Description: FIGS. 7A-7E: (FIG. 7A) Schematic of the 16-day differentiation protocol produced, which targets the identified signaling pathways utilizing growth factors and small molecules to transition through the ameloblast developmental trajectory. […] Each study was performed in triplicate, with error bars representing SEM. (FIG. 7C) The efficiency of each pathway activated in the differentiation from day 10 to day 16 were assessed by removing each agonist one at a time or adding FGFR2 mini binder to inhibit the FGFR2 pathway. AMBN expression was assessed in QRT-PCR, and each condition was performed in triplicate. Significance was determined by unpaired Student's t-test; ***p<0.001; ****p<0.0001; Graph error bars are the means±SEM.
To dissect which pathways were essential for the differentiation from day 10 to day 16, the process of elimination was used (FIG. 7C). […] It was hypothesized that the cells in culture secrete enough FGF ligands to saturate the receptors, and any exogenous ligands would have minimal effects. To test this hypothesis, a computationally designed protein was used, FGFR2 mini-binder (FGFR-mb), that specifically binds and inhibits the activity of the FGFR2 (Cao et al., 2022). […]
RNA was extracted using Trizol (Life Technologies) according to manufacturer's instructions. RNA samples were treated with Turbo DNase (Thermo Fisher Scientific) and quantified using Nanodrop ND-1000. […]

B1: BMP4: bone morphogenic protein-4 (protein, UniProt P12644 293-408, looked up)
Bone morphogenetic protein 4: SPKHHSQRARKKNKNCRRHSLYVDFSDVGWNDWIVAPPGYQAFYCHGDCPFPLADHLNSTNHAIVQTLVNSVNSSIPKACCVPTELSAISMLYLDEYDKVVLKNYQEMVVEGCGCR
Factor removed independently from differentiation day 10 to day 16, compared to when all factors are present
  expression of AMBN when the factor is removed: significantly reduced to less than half

B2: FGFR2-binder: computationally designed protein that specifically binds and inhibits the activity of the FGFR2; binding sequence SEQ ID NO. 1 (protein)
chain: MGDRRKEMDKVYRTAYKRITSTPDKEKRKEVVKEATEQLRRIAKDEEEKKKAAYMISFLKTLGLEHHHHHH
50 nM FGFR-mb added at day 14, harvested at day 16
  expression of AMBN on adding FGFR2 mini-binder: almost totally abolished
